This passage reports fraction ligated results from the supplement of paper PMC6755084.

B1: F1*; the commonest letter at each place (parent)
chain: GAGACCGCAACTGAAAAGTTGTTATCACTTGTCGTAAGACACTTTGGATGGGTTGAAGTTCTGCACGTAGAAGCAAAAGGC

The variants in this series derive from B1. The series can be described thus: fraction ligated after 30 min (ligated reads / total reads); higher = more ligase activity. To be noted: with F1*sub RNA substrate (template-directed ligation), 42 °C. In outline: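 Templates from an oligo pool were PCR-amplified, transcribed with T7 and gel-purified to give the ribozyme variants. Ligated and unligated products were separated on gel, reverse transcribed using barcoded primers, and read on a MiSeq. A quality filter of ≥20 was applied to core bases. Fraction ligated was taken as ligated reads as a share of all reads per variant.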
As for GAGACCGCAACTGAAAAGTTGTTATCACTTGTCGTACGACGCTTTGGATGGGTTGAAGTTCTGCACGTAGAAGCAAAAGGC [A37C A41G], the fraction ligated was determined as 0.79.

As to GAGACCGCAACTGAAAAGTTGTTATCACTTGTCGTACGACTCTTTGGATGGGTTGAAGTTCTGCACGTAGAAGCAAAAGGC [A37C A41T], the fraction ligated came to 0.816.

GAGACCGCAACTGAAAAGTTGTTATCACTTGTCGTACGACCCTTTGGATGGGTTGAAGTTCTGCACGTAGAAGCAAAAGGC [A37C A41C]: the fraction ligated is 0.759.

Consider GAGACCGCAACTGAAAAGTTGTTATCACTTGTCGTACGACACATTGGATGGGTTGAAGTTCTGCACGTAGAAGCAAAAGGC [A37C T43A], for which the fraction ligated is 0.832.

On to GAGACCGCAACTGAAAAGTTGTTATCACTTGTCGTACGACACCTTGGATGGGTTGAAGTTCTGCACGTAGAAGCAAAAGGC [A37C T43C], for which the fraction ligated was found to be 0.817.

Turning to GAGACCGCAACTGAAAAGTTGTTATCACTTGTCGTACGACACGTTGGATGGGTTGAAGTTCTGCACGTAGAAGCAAAAGGC [A37C T43G], the fraction ligated amounted to 0.806.

For the variant GAGACCGCAACTGAAAAGTTGTTATCACTTGTCGTACCACACTTTGGATGGGTTGAAGTTCTGCACGTAGAAGCAAAAGGC [A37C G38C], the fraction ligated was 0.818.

Take GAGACCGCAACTGAAAAGTTGTTATCACTTGTCGTACTACACTTTGGATGGGTTGAAGTTCTGCACGTAGAAGCAAAAGGC [A37C G38T]: the fraction ligated was 0.844.

Turning to GAGACCGCAACTGAAAAGTTGTTATCACTTGTCGTACAACACTTTGGATGGGTTGAAGTTCTGCACGTAGAAGCAAAAGGC [A37C G38A], the fraction ligated is 0.836.

With GAGACCGCAACTGAAAAGTTGTTATCACTTGTCGTAGAACACTTTGGATGGGTTGAAGTTCTGCACGTAGAAGCAAAAGGC [A37G G38A], the fraction ligated was determined as 0.882.

On to GAGACCGCAACTGAAAAGTTGTTATCACTTGTCGTACGACACTTTGGGTGGGTTGAAGTTCTGCACGTAGAAGCAAAAGGC [A37C A48G], for which the fraction ligated is 0.795.

As for GAGACCGCAACTGAAAAGTTGTTATCACTTGTCGTACGACACTTTGGTTGGGTTGAAGTTCTGCACGTAGAAGCAAAAGGC [A37C A48T], the fraction ligated stood at 0.775.

Regarding GAGACCGCAACTGAAAAGTTGTTATCACTTGTCGTACGACACTTTGGCTGGGTTGAAGTTCTGCACGTAGAAGCAAAAGGC [A37C A48C], the fraction ligated came to 0.792.

Consider GAGACCGCAACTGAAAAGTTGTTATCACTTGTCGTAGGACACTTTGGCTGGGTTGAAGTTCTGCACGTAGAAGCAAAAGGC [A37G A48C], for which the fraction ligated is 0.763.

GAGACCGCAACTGAAAAGTTGTTATCACTTGTCGTAGGACACTTTGGTTGGGTTGAAGTTCTGCACGTAGAAGCAAAAGGC [A37G A48T]: the fraction ligated was determined as 0.799.

In the case of GAGACCGCAACTGAAAAGTTGTTATCACTTGTCGTAGGACACTTTGGGTGGGTTGAAGTTCTGCACGTAGAAGCAAAAGGC [A37G A48G], the fraction ligated came to 0.795.

In the case of GAGACCGCAACTGAAAAGTTGTTATCACTTGTCGTAGGACATTTTGGATGGGTTGAAGTTCTGCACGTAGAAGCAAAAGGC [A37G C42T], the fraction ligated is 0.857.

GAGACCGCAACTGAAAAGTTGTTATCACTTGTCGTAGGACAATTTGGATGGGTTGAAGTTCTGCACGTAGAAGCAAAAGGC [A37G C42A]: the fraction ligated was 0.859.

Consider GAGACCGCAACTGAAAAGTTGTTATCACTTGTCGTAGGACAGTTTGGATGGGTTGAAGTTCTGCACGTAGAAGCAAAAGGC [A37G C42G], for which the fraction ligated was found to be 0.857.

Consider GAGACCGCAACTGAAAAGTTGTTATCACTTGTCGTAGGACACTTTGGATGGGTTGGAGTTCTGCACGTAGAAGCAAAAGGC [A37G A56G], for which the fraction ligated is 0.818.

For the variant GAGACCGCAACTGAAAAGTTGTTATCACTTGTCGTAGGACACTTTGGATGGGTTGTAGTTCTGCACGTAGAAGCAAAAGGC [A37G A56T], the fraction ligated is 0.819.

On to GAGACCGCAACTGAAAAGTTGTTATCACTTGTCGTAGGACACTTTGGATGGGTTGCAGTTCTGCACGTAGAAGCAAAAGGC [A37G A56C], for which the fraction ligated was 0.802.

For the variant GAGACCGCAACTGAAAAGTTGTTATCACTTGTCGTAGGACTCTTTGGATGGGTTGAAGTTCTGCACGTAGAAGCAAAAGGC [A37G A41T], the fraction ligated is 0.859.

On to GAGACCGCAACTGAAAAGTTGTTATCACTTGTCGTAGGACGCTTTGGATGGGTTGAAGTTCTGCACGTAGAAGCAAAAGGC [A37G A41G], for which the fraction ligated was 0.822.

Take GAGACCGCAACTGAAAAGTTGTTATCACTTGTCGTAGGACCCTTTGGATGGGTTGAAGTTCTGCACGTAGAAGCAAAAGGC [A37G A41C]: the fraction ligated worked out at 0.787.

In the case of GAGACCGCAACTGAAAAGTTGTTATCACTTGTCGTACGACACTTTGGATGGGTTGACGTTCTGCACGTAGAAGCAAAAGGC [A37C A57C], the fraction ligated is 0.819.

On to GAGACCGCAACTGAAAAGTTGTTATCACTTGTCGTACGACACTTTGGATGGGTTGAGGTTCTGCACGTAGAAGCAAAAGGC [A37C A57G], for which the fraction ligated stood at 0.838.

GAGACCGCAACTGAAAAGTTGTTATCACTTGTCGTACGACACTTTGGATGGGTTGATGTTCTGCACGTAGAAGCAAAAGGC [A37C A57T]: the fraction ligated turned out to be 0.831.

For the variant GAGACCGCAACTGAAAAGTTGTTATCACTTGTCGTAGGACACTTTGGATGGGTTGACGTTCTGCACGTAGAAGCAAAAGGC [A37G A57C], the fraction ligated is 0.82.

GAGACCGCAACTGAAAAGTTGTTATCACTTGTCGTAGGACACTTTGGATGGGTTGAGGTTCTGCACGTAGAAGCAAAAGGC [A37G A57G]: the fraction ligated was determined as 0.859.

For GAGACCGCAACTGAAAAGTTGTTATCACTTGTCGTAGGACACTTTGGATGGGTTGATGTTCTGCACGTAGAAGCAAAAGGC [A37G A57T], the fraction ligated is 0.823.

For GAGACCGCAACTGAAAAGTTGTTATCACTTGTCGTACGACAGTTTGGATGGGTTGAAGTTCTGCACGTAGAAGCAAAAGGC [A37C C42G], the fraction ligated is 0.833.

As to GAGACCGCAACTGAAAAGTTGTTATCACTTGTCGTACGACATTTTGGATGGGTTGAAGTTCTGCACGTAGAAGCAAAAGGC [A37C C42T], the fraction ligated came to 0.857.

For GAGACCGCAACTGAAAAGTTGTTATCACTTGTCGTACGACAATTTGGATGGGTTGAAGTTCTGCACGTAGAAGCAAAAGGC [A37C C42A], the fraction ligated amounted to 0.849.
